Where two headings read alike, the source gives them in different places.
Key:
Test in all cases: EMSA
[1] = molecular target: T1, Dna2 (hDna2) (human, UniProt P51530 1-1060)
T1 sequence: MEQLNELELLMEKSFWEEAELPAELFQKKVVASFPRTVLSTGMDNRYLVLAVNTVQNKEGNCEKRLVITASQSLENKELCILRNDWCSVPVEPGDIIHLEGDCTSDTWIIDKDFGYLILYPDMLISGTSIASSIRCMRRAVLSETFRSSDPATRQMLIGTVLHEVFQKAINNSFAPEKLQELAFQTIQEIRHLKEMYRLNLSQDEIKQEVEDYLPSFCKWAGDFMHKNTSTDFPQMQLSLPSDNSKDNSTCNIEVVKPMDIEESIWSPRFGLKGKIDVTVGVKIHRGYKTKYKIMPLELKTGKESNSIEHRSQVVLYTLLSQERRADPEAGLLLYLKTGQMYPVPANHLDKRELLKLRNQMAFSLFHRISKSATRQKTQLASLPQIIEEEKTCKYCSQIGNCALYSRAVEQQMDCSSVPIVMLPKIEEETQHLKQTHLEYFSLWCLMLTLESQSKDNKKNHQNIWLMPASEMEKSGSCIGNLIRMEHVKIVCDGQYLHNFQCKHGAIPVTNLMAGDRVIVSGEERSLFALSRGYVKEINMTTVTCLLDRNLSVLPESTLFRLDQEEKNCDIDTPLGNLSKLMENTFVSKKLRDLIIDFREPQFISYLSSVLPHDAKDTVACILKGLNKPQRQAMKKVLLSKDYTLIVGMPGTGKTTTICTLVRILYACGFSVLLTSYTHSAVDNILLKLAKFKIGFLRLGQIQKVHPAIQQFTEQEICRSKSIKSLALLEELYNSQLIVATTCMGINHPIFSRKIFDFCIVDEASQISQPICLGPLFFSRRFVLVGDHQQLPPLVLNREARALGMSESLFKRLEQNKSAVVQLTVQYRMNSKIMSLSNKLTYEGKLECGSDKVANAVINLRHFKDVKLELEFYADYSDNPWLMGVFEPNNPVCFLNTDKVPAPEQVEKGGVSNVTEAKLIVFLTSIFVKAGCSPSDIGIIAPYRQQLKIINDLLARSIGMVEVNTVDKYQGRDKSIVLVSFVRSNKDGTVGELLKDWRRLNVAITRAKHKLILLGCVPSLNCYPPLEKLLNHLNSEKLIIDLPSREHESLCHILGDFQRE

[2] = molecular target: T2, FEN1 (hFEN1) (human, UniProt P39748 1-380)
T2 sequence (P39748 whole entry): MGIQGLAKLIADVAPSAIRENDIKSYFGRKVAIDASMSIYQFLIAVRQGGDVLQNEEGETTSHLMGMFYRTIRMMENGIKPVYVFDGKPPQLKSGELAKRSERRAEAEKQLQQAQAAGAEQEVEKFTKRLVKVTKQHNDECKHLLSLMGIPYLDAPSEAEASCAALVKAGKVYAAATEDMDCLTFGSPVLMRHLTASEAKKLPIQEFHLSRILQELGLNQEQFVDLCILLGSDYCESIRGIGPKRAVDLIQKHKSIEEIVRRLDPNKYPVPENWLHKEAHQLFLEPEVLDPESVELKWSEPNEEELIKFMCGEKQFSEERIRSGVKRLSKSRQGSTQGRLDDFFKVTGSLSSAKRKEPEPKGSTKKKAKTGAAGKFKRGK

[3] = molecular target: T1, Dna2 (hDna2); remark: listed apart in the source
[4] = molecular target: Dna2 (hDna2);FEN1 (hFEN1) (human;human, UniProt P51530;P39748 1-1060;1-380, |)
Dna2 (hDna2);FEN1 (hFEN1), sequence (P39748 whole entry, one chain of several): as the sequence (P39748 whole entry) above

[5] = molecular target: T1, Dna2 (hDna2); remark: listed apart in the source
[6] = molecular target: T2, FEN1 (hFEN1); remark: listed apart in the source
[7] = molecular target: T1, Dna2 (hDna2); remark: listed apart in the source
[8] = molecular target: T1, Dna2 (hDna2); remark: listed apart in the source
[9] = molecular target: T1, Dna2 (hDna2); remark: listed apart in the source
[10] = molecular target: T2, FEN1 (hFEN1); remark: listed apart in the source

B1: 2 nt double flap (U1:T1:D1.2) (mixed)
DNA 1: GTCGTTTTACAACGACGTGACTGGG
DNA 2: GCCCAGTCACGTCGTTGTAAAACGGGTCGTGACTGGGAAAACCCTGGCG
DNA 3: CGCCAGGGTTTTCCCAGTCACGACCA
B1: no binding [1].

B2: 5 nt double flap (U1:T1:D1.5) (mixed)
DNA 1: GCCGTCGTTTTACAACGACGTGACTGGG
DNA 2: GCCCAGTCACGTCGTTGTAAAACGGGTCGTGACTGGGAAAACCCTGGCG
DNA 3: CGCCAGGGTTTTCCCAGTCACGACCA
B2: binds [2]; no binding [1].

B3: 20 nt double flap (U1:T1:D1.20) (mixed)
DNA 1: TTAGTTAATTCACTGGCCGTCGTTTTACAACGACGTGACTGGG
DNA 2: GCCCAGTCACGTCGTTGTAAAACGGGTCGTGACTGGGAAAACCCTGGCG
DNA 3: CGCCAGGGTTTTCCCAGTCACGACCA
B3: binds [2].

B4: 30 nt double flap (U1:T1:D1.30) (mixed)
DNA 1: TTCACGCCTGTTAGTTAATTCACTGGCCGTCGTTTTACAACGACGTGACTGGG
DNA 2: GCCCAGTCACGTCGTTGTAAAACGGGTCGTGACTGGGAAAACCCTGGCG
DNA 3: CGCCAGGGTTTTCCCAGTCACGACCA
B4: binds [2]; binds [3].

B5: 30 nt double flap (U2:T3:D2.30) (mixed)
DNA 1: TTCTACTTCCAATTGATACGCGCTATAACCCCCGTCCACCCGACGCCACCTCCTGC
DNA 2: GCAGGAGGTGGCGTCGGGTGGACGGGATTGAAATTTAGGCTGGCACGGTCG
DNA 3: CGACCGTGCCAGCCTAAATTTCAATT
B5: binds [4]; binds [5]; binds [6].

B6: 30 nt flap, 5 nt gap (U3:T3:D2.30) (mixed)
DNA 1: TTCTACTTCCAATTGATACGCGCTATAACCCCCGTCCACCCGACGCCACCTCCTGC
DNA 2: GCAGGAGGTGGCGTCGGGTGGACGGGATTGAAATTTAGGCTGGCACGGTCG
DNA 3: CGACCGTGCCAGCCTAAATT
B6: binds [7].

B7: 30 nt flap, 2 nt gap (U4:T3:D2.30) (mixed)
DNA 1: TTCTACTTCCAATTGATACGCGCTATAACCCCCGTCCACCCGACGCCACCTCCTGC
DNA 2: GCAGGAGGTGGCGTCGGGTGGACGGGATTGAAATTTAGGCTGGCACGGTCG
DNA 3: CGACCGTGCCAGCCTAAATTTCA
B7: binds [8].

B8: 30 nt 5'-tail (T4:D2.30) (mixed)
DNA 1: TTCTACTTCCAATTGATACGCGCTATAACCCCCGTCCACCCGACGCCACCTCCTGC
DNA 2: GCAGGAGGTGGCGTCGGGTGGACGGG
B8: binds [9]; no binding [10].

B9: 15 nt 5'-tail (T4:D2.15) (mixed)
DNA 1: ATACGCGCTATAACCCCCGTCCACCCGACGCCACCTCCTGC
DNA 2: GCAGGAGGTGGCGTCGGGTGGACGGG
B9: no binding [10].

B10: 10 nt double flap (U1:T1:D1.10) (mixed)
DNA 1: CACTGGCCGTCGTTTTACAACGACGTGACTGGG
DNA 2: GCCCAGTCACGTCGTTGTAAAACGGGTCGTGACTGGGAAAACCCTGGCG
DNA 3: CGCCAGGGTTTTCCCAGTCACGACCA
B10: binds [2].

B11: 15 nt double flap (U1:T1:D1.15) (mixed)
DNA 1: TAATTCACTGGCCGTCGTTTTACAACGACGTGACTGGG
DNA 2: GCCCAGTCACGTCGTTGTAAAACGGGTCGTGACTGGGAAAACCCTGGCG
DNA 3: CGCCAGGGTTTTCCCAGTCACGACCA
B11: binds [2].

Reference: article PMC3413157
